# Source: the domain aggregation screens of Martell et al. (2025)
# Experiment: soluble fraction after stress (log2 fold change); higher = more stays soluble; pooled small domains, quantitative proteomics
# Settings: stress: 75 degC
# 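Further: 20 min heating vs room temperature control held 20 min.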
row,Sequence,soluble fraction (log2)
1,HMNVRAYKVSKESELTVEEKLEAVRGYGVADLLYVIREFEENPGKYEPEVIKLIVQQLTDKGIM,0.0392
2,HMNVRRSRTHEKVTTYQGYDIFINKEPNQRGMFTSAPMRGDNEYSNLRGEGKSKQDAVNMTKEKIDEIAA,0.748
3,HMNVSVSITKELQVYINDERISSSALESTLKSKLAGIENPTIILRAEEGVPIEKAVNVMDIANRNRYKIVL,-1.32
4,HMNVYAGTMINVVGLQVEDAASRLRGLFYSVKIVEEESQEPDGKVLRQNIAEGTKDLEAWTLVELTVSKYV,-2.73
5,HMNVYEVKFGDTLDEIIKTYLFDIPVKKSILRQAVILANPHAFRRNNPHWMYSDRQLKLPELQDIRRAIF,-0.317
6,HMNYGDVIEGQIMHVDRDELLVDIGSKSEGIIPAREFSTLTDEERAALSVGDHVLVFVVQAENQEGQAV,0.297
7,HMNYIEWKNTFKKYLYLLPIKEEKETLAYFDEQYNKLNPKDLDNVENIFSDPIDKAAFVVAFYLEMEDEIK,-0.895
8,HMNYIGADAAKNMAAADAQVDTANASFSGANLGEKNGLSYYQVDFTANGREYHYAIDAMTGTVIESSSAAS,0.122
9,HMNYNEKGEYTRTLTSGSETAVMTYRNFGETLDVALFKNGVQTDSLRLIKSEPGVLYRQSNGQFEKI,-0.158
10,HMNYSIVNVGFNNKSLFLRSAPGYSASRLLLPFATERAFVRETLSNGWSRVIVRGTEGYLPTEYVAD,0.345
11,HMNYSKQRETILKVLRSTRSHPSVNWIYENVKKEIPDVGLATVYRNLKQLEAAGEIMRIQGDFPEERWDGF,-1.65
12,HMNYTALLNNFSENMKKRRVELSLSQKELASIVGVSVRTIQNYENKKTIPTSAVMESISIALDMGLEKMID,-1.91
13,HMNYTQAQIDRANAVSLEDFLRTQGETLIKSGREYRWKEHDSLTVRGNKWFRHSQSKGGYPIDFVMEFTA,0.108
14,HMNYYYKDNQYWYVGFRYDERLVKEIKRFVGAGYNPENKEWYIPFTLPTVAPLQKWLHDNGFVEGMNYYP,-2.56
15,HMPAAFALLTDREREIAALIAQRLTNREIAEKLYLSEGSVKQYVNQLYAKLGIEGDTRTKRRRLAEQAK,-0.641
16,HMPAAKARTWQEATHAFQRDFLLETLRRARFNAADAADQLGLARPALYTTAKRLGLDLVAERQRWEAEAH,-0.668
17,HMPAAPVFLQKDLLDAGLIGQADSAARREKLGKILGIGYGNGKVMLQRLNSFGIERDAFEQAVQE,0.081
18,HMPAASDALAGELAQIARLDIAKLLAGDLSEADWSRITSATVQLSERHPDASDELTALVERIDTAYSARAT,0.0397
19,HMPAEGWEASGDTWRYRQKDGSYITNAWVQDTDGKWYYFDESSLMVRNQTTSDGYYVGEDGVWTET,-0.136
20,HMPAELGVVVRNANLRSGPGTKYAIVGSAPAGTTVRIAGTNKAGDWYHLSSGRWIAAFLVDRN,-1.99
21,HMPAERLSMRKIYEILRLKYGHGLSNREVALSVSVSRSTVADYLLRAQAAGLSWPLPDGLDETGLEQRLFP,-3.96
22,HMPAFGALTLRQRDLVELIAQGLDNSQIAARLGLAEKTVRNHITMIFNKLEMENRSQVIVRARESGFGAVR,-1.87
23,HMPAKIIKKSFVYNPIHRDTEYLAQFLQGEGQVSASGDKLVYYGTVEDISRIKSVLQSVDTPS,0.169
24,HMPALATKDSVLDGRAEVVSYVRDTSVFYLRVRVPQKQGYRSRRIDGVSTLPEAITKALDTYMDLGT,-2.6
25,HMPALELLVESKKPLLIHGEKIAEDINLFDREKYFIDDELIRIVKEFPSLKIILEHVSSKYGAD,-2.18
26,HMPAMYKAERMNQILSILADQGDVDVGTLARQFGVSLVTIRKDLTYLESSGQLVRTHGGAIAVA,-0.707

row,Sequence,soluble fraction (log2)
1,HMPASVEYIRLAAEQMTGQQVTIIEQPGNYAFILRIHLNDIYSLDLAALRARIDELKPAHLTYTVEQYD,-2.86
2,HMPATTMMVVVDRDLPYGHVLTDRDVRLETRRATSPGASVAFTSIDPVLGQSLTRPLGAGTPVGRADLR,-0.218
3,HMPAVVEFDVKPRGEVLVDGIWYGRIPELREVELRPGRHHLRVQNAGHPSLDLVVTLEPGERMTVTHTFA,-0.529
4,HMPDAENFRYRVPYTTEQNRLQYYEGDIRAENADKARDQVMQDAQKYFAQNTAFTPNYIDTDIISLD,0.946
5,HMPDFAENAVYGKQREDSLYAHAYKHFQLGDTTTVRAAEHLSAEIYPLGQHRPKFMFLNAVTR,0.309
6,HMPDITAAVARTLQALRADRGWSLDQLAARSGVSKGVLVALEQGRSNPNLATLARIGDAFGVPVTLLVDL,-1.45
7,HMPDPHSEARNIVLNQLNFMPRSRKELETALAKRNIEADVAKIVLDRFEEIGMVDDAAYAEL,0.121
8,HMPDPLYLINGKIVNKSDFNNIDPRSIQSIEVLKANKALEAFGNDGKNGVIKITLKSSNDQM,-0.104
9,HMPEEGPSEDGNSFTAKFKLGSDVQGAMEQADAAAKAGLQDAGKGTGQITSRAQVGGYIYSTATA,0.142
10,HMPEIFYRKIHRTDHDQIALDAEMIRLLIAIDEKKSLSQIAAEVQMEPMALKKNLGKLIQLGLVEPIK,-0.616
11,HMPELSNNLDRDKVALKNFNESLKDGLTPAEAYANHLTNVSKAAQEAARQSNGLPVDIDKYHNSQLAASMA,0.378
12,HMPEMAIRTLRLRNQRGAAVAAEWSRITASLLELRQVEFVNPVDQLIVLKGPEPWAGVAEELVRQLDV,-2.55
13,HMPEQLLNTRIPLEFAGRRFDASLAELFPDYSRSRLAAWIKDGAARLDGETVAPRHTVRGGEQVEILVRM,-0.729
14,HMPERLTYVHPDGAEPMRADKALAAFLSGRISRSRLLGSFSAGKVMAGGKPVEKKLLLRAGDALEVELPEP,-0.239
15,HMPERMLEPLLNGNEIMKVTQLQPGPKVGLIRDALLQAQISGDVTDTESAKAFVQDYAKRNI,0.0453
16,HMPESETIMVDVKGAVQSEGVYELPSTARVNDAIEAAGGFSDQADKKSVNLAQKLSDEAVVYVASQGENV,0.76
17,HMPEVTMSYSARNQVVSFSKATQYEIVDEFGTVVLRGVGNQATLRYLSRGDYFVNFGAGTEVLKK,-0.0464
18,HMPEVYSFEVNEGAAGKRLDIFLSGEIEGLTRSFIQKLISEGMATVNQEPPRASYRVKTRDLVELQIPDPE,-0.334
19,HMPFDWSAFDWKGWADEALAIIKTANQDQMNKWTEDNEKIIVQAETAAPDIYKTVGDEYDKKMESFN,0.0145
20,HMPFESEMKHWIHLFAHELNLKVSDKYTQKIIEIFGNNFSEIFNEMSKSSLVSSNEKDLLNALEKSGNIH,-0.799
21,HMPFGIYGGKVSSLDDLKDKAAVLVPNDVSNEARALLLLEAQGLIKLKEGVGLEATRNDIVEN,≥ 1.04
22,HMPFTLDGVNEGSRNDQAARMSGYLISKNLNMDFIKFFMQSWNRQNSPPLSQREINSVVDNVKRTHDRKNK,-1.88
23,HMPGKVSDAGATAKDNRLFLEAVFWRVRTGSPWRDLPPAFGHWNSQFRRFRRWAKAGVFESLFNA,0.182
24,HMPGRKKLAIIYKNDYIGAFNLADSYRDSYEVSMYAFPKKVGKLLNRLELQGFNAYVIYDKDNEENNFNTI,-1.82
25,HMPGSGELSRRLELAIRDRTAVRVTAAAAGQERSFTLLPVAITSGRLRATDEQAGVQRTLPLSAIVAVEA,-0.179
26,HMPGTEAQDGEVLLDALRRIHPDSSTGTLRRMLTQGRVQVDGTTVHAAKAELTSGQHVEVVAR,0.136

row,Sequence,soluble fraction (log2)
1,HMPIDIEPVLQWIRDNSIDGIGPARSMYHSAAAAAGLPSYSSLQLRKWTWPLLLDAAGVQRR,-0.427
2,HMPIRMLQVQKTNTGYLNVRDTPSVSGALIGKVFPGDMLSSTEERDGWFLVAVPQGGTGWVSGDYVKTTS,-0.191
3,HMPKAPHETLSRREMEVLLLLSEGVTLTRIGDTIHVSVKTVSTYRARILQKLDLQSNAELTRYVLQHKL,-5.8
4,HMPKHDWDAFAGAIARRVHDHGMPVSQGELVRDMMDWFAGRKDFPPPDERTVRRKVSAIWRELNG,-1.38
5,HMPKIPRLTLTETAGIMGVSQRALALAIQQGMYSWAQALPGRNKKRPIYFINAITFAKAQGIDLEEYK,-1.13
6,HMPKKLIWERTTSKLQLYITQDRYELKTPLMTIPFTSKSKMMVYLQQRYHLDMQEYRQIYDAG,-2.28
7,HMPKMDGLTVMEQVNQDHFVNKRPYFIVITAVGQEKITEDAFNKGANYYVMKPFNNNMLLERIKSVRK,0.642
8,HMPKYLNIYHELAQRIQEGALPAETKLPSETELMQEFEASRGTVRKAIDALQEKGFVRKHQGKGVFVLSQ,-0.00712
9,HMPLDYNELRSISPKAARQAILQILAANKGNVSATAKLLGVSRKTVYKAMHKKASGNLDDTSRAPK,-1.74
10,HMPLITAIELDSISARSFQFNTQSGSTYFIEGSTDLKSWDVIAEVKATDSTTTYEDHRKIYHEAYFYRVRL,-1.84
11,HMPLITDIKIQVKNTEKVSLFVDGKYSFSLTISQLAEHKILKTNQEISAKQVAEFKKLSNLTNLYIRIVG,-0.305
12,HMPLITLSAEIQSEQIGQRLDQTLAELFPEYSRSRLKTWIEADLVKLNNQIVNIPREKVLGGEHVEITVDI,-1.09
13,HMPLNRFLNLPHEDKERVLLIAKKQFSTHGYDAMSLNLLLKELDISKGQFYYWFEDKADLFFTVL,-0.11
14,HMPLRPNQRQFIHLMVYQGLDRNEAYAQANNKVLTEENYESIRTAAAKTFYTPHVNNYYHALMEEIRDRE,-0.471
15,HMPLSVRQRMSDILSNLKTSDFTNFADLFDPKEGRTGITVTFIAILELLREFLIEVVQSDHYQPLHVRAAS,-0.213
16,HMPLTAASLQTYLRGVDYPASKQDLIAHARKSDAPEDAITVLEQYSEQTYRSAADVSAEFGS,0.109
17,HMPLTEMAVRKHLSAELAQKGYTIDPRALEILLQRTNTNLTAIANELPKLLLVAEDKQITVNEVSAM,-0.319
18,HMPLTKKLETLFSLFPKYEKELKKKGVTRIHVWANYKEEYPDGIGRSQFIHYYSFWKKQVSP,-0.154
19,HMPLVIIRGIEGVFSSEEKAEAIRKVTDALVSVKGENVRGFAWVVFEEVKSGDWGIGGESITAEKVIMSL,0.158
20,HMPMDDETWDALSLFAYKRYARENGWPLMIGAEALRDTFASYFPLDSSTWQDRSSHYLTYQDGIYTRT,-0.247
21,HMPMDYFELFNIPRNANRETIKKILDQEYEKYRARVVSPVLEIRHEAELMLVEISKAKQVLLG,-1.08
22,HMPMHPEDLKKLVSIEMPFGKHKGRIIADLPGNYLNWFAREGFPPGEIGRLLQLMQEIDHNGLSDLLKPLR,-0.521
23,HMPMNISDIIKQAREELGMTQEDLAERLEVSRQAVSKWELGASVPSPENLRLLEELLGVELPAP,-0.198
24,HMPNFDPSYILDFGDVIQLQLVGQKNQILEIPILRDGSVNLPDIGKIFLSGMSLEEATKIIKDTYSA,-0.931
